Laboratory results published in the supplement of paper PMC10065799, “High-throughput profiling of sequence recognition by tyrosine kinases and SH2 domains using bacterial peptide display” (eLife, 2023).

Tests used:
FGFR3 = FGFR3 (UniProt P22607); assay: phosphorylation enrichment, bacterial display (enrichment ratio); higher = better substrate or ligand; peptides without Tyr show the background
c-Src = assay: as above
EPHB2 = EPHB2 (UniProt P29323); assay: as above
AncSZ = assay: as above
Fes = Fes (UniProt P07332); assay: as above
Fer (mouse) = assay: as above
Hck = Hck (UniProt P08631); assay: as above
MERTK = MERTK (UniProt Q12866); assay: as above
Fyn = Fyn (UniProt P06241); assay: as above
FGFR1 = FGFR1 (UniProt P11362); assay: as above
Jak2 = Jak2 (UniProt O60674); assay: as above
EPHB1 = EPHB1 (UniProt P54762); assay: as above
c-Abl (mouse) = assay: as above
c-Src SH2 = assay: SH2 binding enrichment of the phosphorylated peptide, bacterial display (enrichment ratio); higher = better substrate or ligand; peptides without Tyr show the background
Grb2 SH2 = Grb2 SH2 (UniProt P62993); assay: as above
SHP2-C SH2 = assay: as above
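Throughout, for SH2 binding enrichment of the phosphorylated peptide, bacterial display: peptide library displayed on the E. coli surface as eCPX fusions, selected cells deep-sequenced, score is each peptide's frequency after selection divided by its frequency in the input.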
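Throughout, for phosphorylation enrichment, bacterial display: 11-residue human phosphosite peptides and single-mutation variants displayed on the E. coli surface, counted by deep sequencing, each peptide's frequency after selection divided by its frequency in the unselected input library; frequency after pTyr selection over input frequency; kinase dosed for 20-30% of maximal phosphorylation in three min.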

Sequence of FGFR1 (P11362 whole entry, looked up): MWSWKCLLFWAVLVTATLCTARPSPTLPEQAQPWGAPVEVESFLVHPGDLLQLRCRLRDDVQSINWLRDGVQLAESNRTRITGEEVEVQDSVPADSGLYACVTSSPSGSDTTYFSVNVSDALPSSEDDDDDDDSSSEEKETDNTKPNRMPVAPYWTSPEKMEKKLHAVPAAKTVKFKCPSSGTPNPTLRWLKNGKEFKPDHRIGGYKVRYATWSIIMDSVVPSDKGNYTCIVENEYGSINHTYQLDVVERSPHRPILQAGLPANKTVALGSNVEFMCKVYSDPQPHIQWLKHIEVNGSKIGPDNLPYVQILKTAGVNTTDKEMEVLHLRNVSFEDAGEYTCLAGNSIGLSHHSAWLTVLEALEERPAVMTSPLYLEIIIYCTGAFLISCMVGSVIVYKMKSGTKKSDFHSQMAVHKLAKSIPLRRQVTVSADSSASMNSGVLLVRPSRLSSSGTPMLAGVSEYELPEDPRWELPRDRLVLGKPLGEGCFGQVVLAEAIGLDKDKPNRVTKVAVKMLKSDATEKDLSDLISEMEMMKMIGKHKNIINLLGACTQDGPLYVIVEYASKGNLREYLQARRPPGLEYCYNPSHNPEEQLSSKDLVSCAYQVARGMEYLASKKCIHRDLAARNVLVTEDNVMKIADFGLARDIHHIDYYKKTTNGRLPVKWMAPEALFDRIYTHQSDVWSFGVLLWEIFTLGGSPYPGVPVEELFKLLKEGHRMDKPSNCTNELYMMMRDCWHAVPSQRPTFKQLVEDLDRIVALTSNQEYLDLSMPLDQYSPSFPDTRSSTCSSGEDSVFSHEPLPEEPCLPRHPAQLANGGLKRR
Sequence of FGFR3 (P22607 whole entry, looked up): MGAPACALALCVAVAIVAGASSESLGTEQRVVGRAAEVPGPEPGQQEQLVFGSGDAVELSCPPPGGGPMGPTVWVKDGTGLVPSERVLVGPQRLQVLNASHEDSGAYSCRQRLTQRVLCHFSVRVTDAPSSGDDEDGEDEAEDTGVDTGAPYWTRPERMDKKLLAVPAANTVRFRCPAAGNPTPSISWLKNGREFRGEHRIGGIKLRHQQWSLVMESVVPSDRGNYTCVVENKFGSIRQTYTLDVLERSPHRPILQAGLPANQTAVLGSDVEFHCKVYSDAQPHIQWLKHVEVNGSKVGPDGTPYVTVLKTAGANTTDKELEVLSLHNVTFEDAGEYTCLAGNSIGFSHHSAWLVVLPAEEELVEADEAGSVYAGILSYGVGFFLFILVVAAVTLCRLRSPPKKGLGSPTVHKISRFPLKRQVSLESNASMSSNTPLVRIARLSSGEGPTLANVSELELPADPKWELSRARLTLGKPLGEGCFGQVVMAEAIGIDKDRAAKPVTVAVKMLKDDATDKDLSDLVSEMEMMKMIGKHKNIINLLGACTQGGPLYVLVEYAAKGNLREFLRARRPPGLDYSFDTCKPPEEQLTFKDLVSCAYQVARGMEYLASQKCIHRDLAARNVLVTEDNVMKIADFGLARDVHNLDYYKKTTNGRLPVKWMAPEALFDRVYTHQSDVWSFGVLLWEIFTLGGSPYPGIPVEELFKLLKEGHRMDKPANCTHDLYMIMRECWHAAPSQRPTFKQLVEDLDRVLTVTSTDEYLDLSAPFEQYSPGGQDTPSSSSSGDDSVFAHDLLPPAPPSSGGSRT
Sequence of Fyn (P06241 whole entry, looked up): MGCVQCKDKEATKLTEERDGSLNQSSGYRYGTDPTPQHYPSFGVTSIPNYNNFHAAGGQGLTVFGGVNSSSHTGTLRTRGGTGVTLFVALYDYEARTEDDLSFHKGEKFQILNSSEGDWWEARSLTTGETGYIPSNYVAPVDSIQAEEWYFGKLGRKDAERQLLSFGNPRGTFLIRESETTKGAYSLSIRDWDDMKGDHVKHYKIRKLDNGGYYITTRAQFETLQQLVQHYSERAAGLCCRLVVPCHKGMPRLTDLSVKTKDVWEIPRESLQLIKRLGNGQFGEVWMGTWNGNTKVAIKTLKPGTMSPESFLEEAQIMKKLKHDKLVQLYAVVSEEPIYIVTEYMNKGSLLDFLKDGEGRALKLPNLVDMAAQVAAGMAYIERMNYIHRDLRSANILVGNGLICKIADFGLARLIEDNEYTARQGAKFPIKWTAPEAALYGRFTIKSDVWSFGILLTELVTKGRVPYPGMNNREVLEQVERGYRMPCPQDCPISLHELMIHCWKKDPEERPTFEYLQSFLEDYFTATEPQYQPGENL
Sequence of Fes (P07332 whole entry, looked up): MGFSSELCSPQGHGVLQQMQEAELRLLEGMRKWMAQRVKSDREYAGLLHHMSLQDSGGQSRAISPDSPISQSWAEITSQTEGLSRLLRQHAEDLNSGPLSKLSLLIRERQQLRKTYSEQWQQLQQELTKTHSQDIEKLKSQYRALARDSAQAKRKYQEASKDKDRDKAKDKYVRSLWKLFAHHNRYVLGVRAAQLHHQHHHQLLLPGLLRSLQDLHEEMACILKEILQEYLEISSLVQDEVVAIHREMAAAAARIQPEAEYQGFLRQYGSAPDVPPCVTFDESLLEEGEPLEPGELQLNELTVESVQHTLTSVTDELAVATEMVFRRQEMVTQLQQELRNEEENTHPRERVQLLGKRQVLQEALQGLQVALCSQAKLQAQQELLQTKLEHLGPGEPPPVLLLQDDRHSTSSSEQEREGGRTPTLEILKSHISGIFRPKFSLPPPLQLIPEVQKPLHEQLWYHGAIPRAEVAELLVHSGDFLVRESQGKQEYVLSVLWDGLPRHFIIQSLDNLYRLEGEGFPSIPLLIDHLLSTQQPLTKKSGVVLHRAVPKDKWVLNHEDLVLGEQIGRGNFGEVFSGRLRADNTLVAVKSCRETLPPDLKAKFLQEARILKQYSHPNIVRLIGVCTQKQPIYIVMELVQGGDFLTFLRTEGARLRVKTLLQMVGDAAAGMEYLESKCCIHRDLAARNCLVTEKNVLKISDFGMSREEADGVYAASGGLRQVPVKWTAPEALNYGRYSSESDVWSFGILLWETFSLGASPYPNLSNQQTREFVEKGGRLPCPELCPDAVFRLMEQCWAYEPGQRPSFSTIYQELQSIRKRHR
Sequence of Jak2 (O60674 whole entry, looked up): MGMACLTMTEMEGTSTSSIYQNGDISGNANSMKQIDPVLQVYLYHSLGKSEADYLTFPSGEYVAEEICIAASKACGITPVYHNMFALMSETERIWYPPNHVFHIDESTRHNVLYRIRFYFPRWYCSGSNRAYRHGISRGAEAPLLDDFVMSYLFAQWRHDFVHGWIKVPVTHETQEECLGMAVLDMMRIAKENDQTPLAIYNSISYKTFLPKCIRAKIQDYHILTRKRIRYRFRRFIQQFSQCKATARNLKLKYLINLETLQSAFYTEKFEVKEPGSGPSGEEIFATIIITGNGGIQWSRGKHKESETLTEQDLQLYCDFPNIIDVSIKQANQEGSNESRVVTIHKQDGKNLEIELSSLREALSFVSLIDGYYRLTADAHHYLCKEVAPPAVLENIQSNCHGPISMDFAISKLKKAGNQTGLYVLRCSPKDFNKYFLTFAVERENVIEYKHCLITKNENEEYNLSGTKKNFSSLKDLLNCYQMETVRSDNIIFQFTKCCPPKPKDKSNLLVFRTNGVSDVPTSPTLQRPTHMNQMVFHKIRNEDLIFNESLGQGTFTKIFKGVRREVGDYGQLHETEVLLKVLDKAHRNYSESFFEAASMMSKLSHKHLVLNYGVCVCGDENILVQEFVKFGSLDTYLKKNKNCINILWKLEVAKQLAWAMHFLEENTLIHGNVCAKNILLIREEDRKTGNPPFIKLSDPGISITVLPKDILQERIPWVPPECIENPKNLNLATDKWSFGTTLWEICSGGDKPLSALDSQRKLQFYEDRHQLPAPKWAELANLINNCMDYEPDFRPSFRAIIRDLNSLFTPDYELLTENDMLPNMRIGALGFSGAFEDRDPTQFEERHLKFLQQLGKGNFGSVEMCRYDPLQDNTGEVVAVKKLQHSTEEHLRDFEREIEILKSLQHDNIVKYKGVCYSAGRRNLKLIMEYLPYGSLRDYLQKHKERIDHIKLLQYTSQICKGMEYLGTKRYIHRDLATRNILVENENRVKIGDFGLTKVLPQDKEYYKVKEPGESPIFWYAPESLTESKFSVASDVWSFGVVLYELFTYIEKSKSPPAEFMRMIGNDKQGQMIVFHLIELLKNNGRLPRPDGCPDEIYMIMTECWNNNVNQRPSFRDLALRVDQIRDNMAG
Sequence of Hck (P08631 whole entry, looked up): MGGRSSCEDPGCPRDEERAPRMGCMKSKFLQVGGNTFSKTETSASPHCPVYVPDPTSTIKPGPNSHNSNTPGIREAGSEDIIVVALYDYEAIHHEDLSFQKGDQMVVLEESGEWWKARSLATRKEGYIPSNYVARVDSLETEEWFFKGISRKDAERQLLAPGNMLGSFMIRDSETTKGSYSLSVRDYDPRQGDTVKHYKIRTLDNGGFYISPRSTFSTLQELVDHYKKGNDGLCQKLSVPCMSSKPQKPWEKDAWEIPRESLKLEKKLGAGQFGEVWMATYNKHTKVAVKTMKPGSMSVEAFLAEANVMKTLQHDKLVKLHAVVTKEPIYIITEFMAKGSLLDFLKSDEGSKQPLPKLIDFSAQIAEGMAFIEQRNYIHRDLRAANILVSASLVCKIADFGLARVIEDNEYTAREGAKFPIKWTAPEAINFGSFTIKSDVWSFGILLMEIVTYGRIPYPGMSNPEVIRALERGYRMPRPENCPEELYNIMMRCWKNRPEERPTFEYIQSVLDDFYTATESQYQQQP

Sequence	SH2 binding enrichment (c-Src SH2)	SH2 binding enrichment (Grb2 SH2)	SH2 binding enrichment (SHP2-C SH2)	phosphorylation enrichment (FGFR3)	phosphorylation enrichment (c-Src)	phosphorylation enrichment (EPHB2)	phosphorylation enrichment (AncSZ)	phosphorylation enrichment (Fes)	phosphorylation enrichment (Fer (mouse))	phosphorylation enrichment (Hck)	phosphorylation enrichment (MERTK)	phosphorylation enrichment (Fyn)	phosphorylation enrichment (FGFR1)	phosphorylation enrichment (Jak2)	phosphorylation enrichment (EPHB1)	phosphorylation enrichment (c-Abl (mouse))
TLQSMFGCDVG [HLA-B_Y123_Y123F]	0.541	0.79	0.684	0.7	0.44	0.85	0.989	1.09	0.523	0.489	0.511	0.648	0.515	0.852	0.657	0.637
TRLAQYDSNSK [BMX_Y216_S212R]	0.637	0.962	0.829	0.41	0.643	0.402	0.713	0.684	0.445	0.42	0.682	0.44	0.527	0.811	0.399	0.776
TRSFDYMEGGD [FGF7_Y58_YF]	0.576	1.07	0.791	0.674	0.446	0.544	1.03	1.18	0.416	0.599	0.613	0.535	0.617	1.05	0.487	0.761
TRYDEYLEVTK [MAP1A_Y2217_H2214Y]	1.02	0.777	0.506	0.872	0.538	0.884	1.31	1.25	0.592	0.539	0.425	0.519	0.901	1.16	0.98	0.909
TSSAGYRAAEG [COL6A3_Y543]	0.485	0.903	0.653	0.641	0.316	0.406	0.524	0.629	0.429	0.379	0.365	0.422	0.573	0.365	0.505	0.309
TTSQLYDAVPI [PDPK1_Y9]	0.485	0.728	0.848	0.786	7.33	17.1	1.28	1.41	19.6	11.5	13	10.2	0.611	0.849	13.4	1.31
TVLGEYASPKG [CYP24A1_Y407_L409S]	0.596	1.02	0.793	0.482	0.468	0.612	0.733	0.619	0.371	0.578	0.513	0.498	0.405	0.561	0.508	3.4
TVQIMYGCDVG [HLA-A_Y123_I119V]	0.545	0.861	0.553	0.917	0.47	0.773	0.945	1.22	0.611	0.567	0.444	0.575	0.539	0.955	0.676	0.737
VAMDDYLKNVV [LRRK2_Y707_M712V]	0.573	0.828	0.648	0.666	0.376	0.59	0.872	0.919	0.405	0.477	0.393	0.364	0.468	0.708	0.482	0.518
VASSLYDILAR [GLB1_Y294]	0.78	0.567	0.67	0.557	2.84	1.01	1.02	1.05	1.96	8.2	8.38	1.77	0.37	1.24	1.16	0.763

Now from value to sequence, other results behind:

SH2 binding enrichment (c-Src SH2)	SH2 binding enrichment (Grb2 SH2)	SH2 binding enrichment (SHP2-C SH2)	Sequence	phosphorylation enrichment (FGFR3)	phosphorylation enrichment (c-Src)	phosphorylation enrichment (EPHB2)	phosphorylation enrichment (AncSZ)	phosphorylation enrichment (Fes)	phosphorylation enrichment (Fer (mouse))	phosphorylation enrichment (Hck)	phosphorylation enrichment (MERTK)	phosphorylation enrichment (Fyn)	phosphorylation enrichment (FGFR1)	phosphorylation enrichment (Jak2)	phosphorylation enrichment (EPHB1)	phosphorylation enrichment (c-Abl (mouse))
0.593	0.721	0.766	TRNRDYDDIDD [TTYH2_Y424]	0.665	0.448	0.563	1.02	0.917	0.438	0.527	0.507	0.451	0.562	0.734	0.497	0.621
1.04	1.41	1.58	TRSCKYLLLSM [NF1_Y491_Y489C]	0.552	0.39	0.621	0.823	0.954	0.416	0.549	0.512	0.441	0.53	0.864	0.521	0.614
0.471	0.704	0.655	TTEHIYGDKFF [UBA7_Y524_N527K]	0.563	4.65	0.477	0.722	0.762	0.502	2.15	0.459	4.92	0.597	0.648	0.468	0.728
0.653	1.24	0.992	TTSQPYRCLCS [USH2A_Y534]	0.707	0.562	0.587	0.951	0.941	0.509	0.523	0.781	0.557	0.552	0.931	0.473	1.07
0.438	0.848	0.576	TTTQAYRVNER [PRKN_Y391_D394N]	0.386	0.473	0.31	0.496	0.514	0.447	0.397	0.4	0.324	0.421	0.531	0.445	0.492
1.28	0.516	0.456	TVLEPYTDPYY [ZC3H18_Y367_A368T]	0.797	0.845	0.541	1.2	0.857	0.433	0.649	0.524	0.656	1	0.805	0.611	0.568
